Paper PMC7139386, “Defects in Galactose Metabolism and Glycoconjugate Biosynthesis in a UDP-Glucose Pyrophosphorylase-Deficient Cell Line Are Reversed by Adding Galactose to the Growth Medium” (International Journal of Molecular Sciences, 2020)
Positions count from the first letter of the chain named. In names and notes the source's numbering stands.

B1: HsUGP (Homo sapiens) (protein)
chain: MSRFVQDLSKAMSQDGASQFQEVIRQELELSVKKELEKILTTASSHEFEHTKKDLDGFRKLFHRFLQEKGPSVDWGKIQRPPEDSIQPYEKIKARGLPDNISSVLNKLVVVKLNGGLGTSMGCKGPKSLIGVRNENTFLDLTVQQIEHLNKTYNTDVPLVLMNSFNTDEDTKKILQKYNHCRVKIYTFNQSRYPRINKESLLPVAKDVSYSGENTEAWYPPGHGDIYASFYNSGLLDTFIGEGKEYIFVSNIDNLGATVDLYILNHLMNPPNGKRCEFVMEVTNKTRADVKGGTLTQYEGKLRLVEIAQVPKAHVDEFKSVSKFKIFNTNNLWISLAAVKRLQEQNAIDMEIIVNAKTLDGGLNVIQLETAVGAAIKSFENSLGINVPRSRFLPVKTTSDLLLVMSNLYSLNAGSLTMSEKREFPTVPLVKLGSSFTKVQDYLRRFESIPDMLELDHLTVSGDVTFGKNVSLKGTVIIIANHGDRIDIPPGAVLENKIVSGNLRILDH
notes: octameric
B2: HsUGP (Homo sapiens; G116D) (protein)
chain: B1 chain with G116D
notes: octameric

How the values were obtained:
Type in all cases: biochemical, Homo sapiens
[1] = substrate: O=P(O)(O)O[C@H]1O[C@H](CO)[C@H](O)[C@H](O)[C@H]1O; assay: continuous assay based on PPi detection, forward reaction, Michaelis-Menten and cooperative fits; conditions: Gal1P varied 0.01-2 mM at 1 mM UTP
[2] = substrate: O=P(O)(O)O[C@H]1O[C@H](CO)[C@@H](O)[C@H](O)[C@H]1O; assay: continuous assay based on PPi detection, forward reaction, Michaelis-Menten fit; conditions: Glc1P varied 0.01-1 mM at 1 mM UTP
[3] = substrate: O=c1ccn([C@@H]2O[C@H](COP(=O)(O)OP(=O)(O)OP(=O)(O)O)[C@@H](O)[C@H]2O)c(=O)[nH]1; assay: as above; conditions: UTP varied 0.01-0.8 mM at 2 mM Glc1P

Protein | Km [1] | Km [2] | Km [3]
B1 | 842.0 ± 72.8 µM | 34.2 ± 1.99 µM | 76.29 ± 3.96 µM
B2 |  | 53.97 ± 4.11 µM | 79.50 ± 4.93 µM
